Results taken from patent US6887705B1, “Tyrosine phosphorylated cleavage furrow-associated proteins (PSTPIPs)” (Genentech, Inc., priority 1997, dated 2005).
Where two headings read alike, the source gives them in different places.

T1: interaction between PTP HSCF and PSTPIP (Mus musculus, UniProt P97814)
T1 construct: made in house; host or cells: GST fusion: E. coli DH5-alpha; PSTPIP: in vitro transcription/translation in rabbit reticulocyte lysate (Promega TnT)
T1 sequence (P97814 1-415): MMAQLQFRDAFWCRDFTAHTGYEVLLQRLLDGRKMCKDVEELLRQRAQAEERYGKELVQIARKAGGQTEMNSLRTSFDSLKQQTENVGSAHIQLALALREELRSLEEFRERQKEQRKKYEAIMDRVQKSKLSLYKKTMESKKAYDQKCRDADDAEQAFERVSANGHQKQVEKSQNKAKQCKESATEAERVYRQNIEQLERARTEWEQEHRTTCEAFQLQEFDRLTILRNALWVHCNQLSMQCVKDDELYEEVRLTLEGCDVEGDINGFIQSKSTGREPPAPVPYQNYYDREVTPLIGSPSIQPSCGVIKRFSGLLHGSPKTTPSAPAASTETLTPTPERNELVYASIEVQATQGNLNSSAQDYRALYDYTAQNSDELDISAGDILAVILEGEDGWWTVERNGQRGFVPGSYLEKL

T2: PSTPIP (Mus musculus, UniProt P97814)
T2 construct: containing the full-length cDNA for PSTPIP (amino acids 2-415) was subcloned into pGEX4T-2; made in house; host or cells: E. coli DH5-alpha
T2 sequence (P97814 2-415): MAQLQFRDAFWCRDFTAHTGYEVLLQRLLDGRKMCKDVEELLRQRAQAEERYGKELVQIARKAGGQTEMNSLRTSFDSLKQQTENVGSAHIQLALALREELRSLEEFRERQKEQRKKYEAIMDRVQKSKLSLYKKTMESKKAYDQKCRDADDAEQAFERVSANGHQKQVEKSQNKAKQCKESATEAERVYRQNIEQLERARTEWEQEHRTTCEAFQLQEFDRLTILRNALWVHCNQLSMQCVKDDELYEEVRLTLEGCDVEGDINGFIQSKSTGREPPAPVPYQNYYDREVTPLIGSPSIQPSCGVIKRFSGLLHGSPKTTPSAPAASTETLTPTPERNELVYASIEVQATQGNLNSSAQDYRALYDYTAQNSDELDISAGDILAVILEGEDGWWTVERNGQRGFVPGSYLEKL

B1: R444+W450: PTP HSCF double mutant with R444 and W450 mutated to alanine (protein)
chain: MSRHTDLVRSFLEQLEARDYREGAILAREFSDIKARSVAWKSEGVCSTKAGSRLGNTNKNRYKDVVAYDETRVILSLLQEEGHGDYINANFIRGIDGSQAYIATQGPLPHTLLDFWRLVWEFGVKVILMACQETENGRRKCERYWAREQEPLKAGPFCITLTKETTLNADITLRTLQVTFQKEFRSVHQLQYMSWPDHGVPSSSDHILTMVEEARCLQGLGPGPLCVHCSAGCGRTGVLCAVDYVRQLLLTQTIPPNFSLFQVVLEMRKQRPAAVQTEEQYRFLYHTVAQLFSRTLQDTSPHYQNLKENCAPICKEAFSLRTSSALPATSRPPGGVLRSISVPAPPTLPMADTYAVVQKRGASAGTGPGPRAPTSTDTPIYSQVAPRAQRPVAHTEDAQGTTALRRVPADQNSSGPDAYEEVTDGAQTGGLGFNLRIGRPKGPADPPAEATRV
modifications: left off: small tags and cut ends
notes: PTP HSCF double mutant with R444 and W450 mutated to alanine

Columns and labels:
[1] = target: T1, interaction between PTP HSCF and PSTPIP; conditions: previous studies (Spencer et al. 1997); cited from earlier work
[2] = test system: PST PIP - PTP HSCF association; experiment: Coprecipitation of PST PIP and PTP HSCF from co-transfected COS cells; assay type: cell-based
Method: COS-7 cells were transfected by electroporation. Briefly, 1.5×10^6 COS-7 cells were mixed with 24 μg total DNA in PBS and electroporated at 960 μF, […] (Bio-Rad™ Gene Pulsar™). Following electroporation, cells were seeded in 10 cm dishes and incubated for 3 days. 10-cm dishes of transfected COS cells were washed twice with ice-cold PBS, and lysed in 1 ml of M-RIPA (50 mM Tris 7.4, 1% NP40, 0.25% DOC, 150 mM NaCl, 1 mM sodium ortho-vanadate, 1 mM NaF plus Complete™ Protease Inhibitors (Boehringer Mannheim)). Lysates were incubated for 15 minutes with 100 μl UltraLink Immobilized Protein A/G™ (Pierce) at 4° C., followed by centrifugation for 5 minutes. Supernatants were collected and stored at −70° C. or directly immunoprecipitated. 5 μg of M2 or 12CA5 was added to 500 μl of lysate and incubated overnight at 4° C. Ultralink Protein A/G™ was added and incubation continued for 2 hours at 4° C. The immune complexes were washed 3 times with M-RIPA. The proteins were subjected to SDS-PAGE and transferred to nitrocellulose in 1X Transfer Buffer™ (Novex). Immunoblots were blocked overnight at 4° C. in 3% milk/PBS. To detect Flag-tagged PIP, blots were incubated with 10 μg/ml Bio-M2 (Biotinylated anti-FLAG monoclonal Ab, KODAK) followed by incubation in 10 μg/ml streptavidin-HRP (UBI). To detect HA-tagged PTPhscf, blots were incubated in anti-(HA)-peroxidase (Boehringer Mannheim) as per manufacturer's instructions. To detect phosphotyrosine, blots were incubated in HRP-conjugated 4G10 (anti-phosphotyrosine monoclonal, UBI) as per manufacture's instructions.
In vitro binding analyses between various PTP HSCF and PST PIP constructs were performed as previously described (Spencer et al, (1997), supra). Briefly, plasmids were transcribed and translated in vitro using the TnT Rabbit Reticulocyte Lysate System (Promega). Samples were diluted in 50 mM HEPES, pH 7.2, 1% triton X-100, 10% glycerol, 100 mM NaCl, and 2 μg/ml each of leupeptin, pepstatin, aprotinin and PMSF (lysis buffer). Samples were than reacted with GST fusion proteins at various concentrations, and the bound proteins were centrifuged using glutathione-sepharose beads and analyzed on SDS polyacrylamide gels. C-terminally-derived peptide inhibition studies were performed by incubating the GST fusion protein binding reactions in the presence of 10 μg/ml of the indicated peptides. Peptides were produced by FMOC-protected amino acids as previously described (Spencer et al, (1997), supra). In vivo interactions between various forms of PTP HSCF and PST PIP were also performed as previously described (Spencer et al, (1997), supra). Briefly, COS cells were transfected with various constructs, and after 48 hours, lysates were prepared and immunoprecipitated with antibodies to either the FLAG epitope contained at the C-terminus of PST PIP or an HA epitope contained at the N-terminus of PTP HSCF. The resultant blots were probed with anti-FLAG to detect PST PIP, anti-HA to detect PTP HSCF or anti-phosphotyrosine to detect levels of this modified amino acid in each protein.

PSTPIP = target: T2, PSTPIP; experiment: In vitro GST pull-down binding of PTP HSCF forms to GST PSTPIP; set-up: species or system murine; conditions: 1 or 10 μg/ml GST PST PIP
Method: The binding was carried out according to the method of Wong and Johnson (Wong et al., J. Biol. Chem. 271(35):20981-20984 (1996)). Briefly, 1 μg of plasmid with either the PSTPIP protein or PTP HSCF under the control of the Sp6 promoter was in vitro transcribed/translated using the Promega™ TnT Rabbit Reticulocyte™ system. Samples were diluted in 50 mM HEPES, pH 7.2, 1% triton X 100, 10% glycerol, 100 mM NaCl, 5 mM EDTA and 2 μg/ml each of leupeptin, pepstatin, aprotinin, and PMSF. […] This was reacted for 1 hour at 4° C. and then the resin washed 6 times in HEPES/Triton binding buffer before SDS gel electrophoresis. The peptides were synthesized on an automated Milligen 9050 Peptide Synthesizer using standard solid phase chemistry with FMOC protected amino acids on a p-alkoxybenzyl alcohol resin. Dried peptides were re-suspended in the HEPES/Triton Binding buffer at a concentration of 10 mg/ml. Peptide inhibition was performed by adding the peptide first to the in vitro translation product and then the GST-fusion followed by the GSH-Sepharose. […]
In vitro binding analyses between various PTP HSCF and PST PIP constructs were performed as previously described (Spencer et al, (1997), supra). […] Samples were than reacted with GST fusion proteins at various concentrations, and the bound proteins were centrifuged using glutathione-sepharose beads and analyzed on SDS polyacrylamide gels. […]

Molecule	blocking of the PTP HSCF-PST PIP interaction by C-terminal peptides of related PTPs [1]	in vivo association (coprecipitation) of PST PIP and PTP HSCF [2]	in vivo association (coprecipitation) of PST PIP and PTP HSCF ([2]; listed as PTP HSCF444+450)	binding of in vitro translated PTP HSCF forms to GST PSTPIP (PSTPIP)
GFGNRCGKPKGPRDPPSEWT [PXXP-PEST]	effectively block the interaction			
GFGNRFSKPKGPRNPPSAW [PXXP-PEP]	effectively block the interaction			
B1		as poor at interacting in vivo with PST PIP as the mutant which was missing the entire C-terminal proline rich domain	complete loss of coprecipitation	stronger inhibitory effect on binding to PST PIP
